Test [1] has as its system Female C57BL/6 recipient mice (CD45.2+). The test can be described thus: HY bone marrow transplantation model, male CD45.1 BM into female CD45.2 mice (FACS of blood and spleen). The test is classed as in vivo, mouse. An excerpt:
A transplantation model utilizing male bone marrow (BM) cells from C57BL/6 mice transplanted into female mice of the same starin was used to study whether C1ORF32 ECD-Fc induces immune tolerance. In this model BM cells of the male mouse are rejected by the female recipients due to mismatch in the minor histocompatibility antigen encoded by the Y chromosome (Hya). To allow identification of the male cells in the female mice blood, male mice expressing CD45.1 isotype were selected while the female mice carry CD45.2 isotype. This model provides a tool for testing the effect of potential drugs on induction of tolerance towards the grafted cells.
In this model, C1ORF32 ECD-Fc (SEQ ID NO:42) treatment started one week before bone marrow transplantation and continued for five weeks. Female recipient mice were followed for percentage of CD45.1+ and CD45.2+ cells present within the blood.
Female C57BL/6 recipient mice (CD45.2+) were sub-lethally irradiated with 200 rads/cGy 24 hours before transplantation of either female C57Bl/6 (CD45.1+) or male C57Bl/6 (CD45.1+) 5×10^6 bone marrow cells. Recipient mice were allocated into treatment groups as detailed below (n=6 per group). Treatments were given at 300 ug/dose i.p, 3×/wk starting one week prior to transplantation and continued for 4 weeks following transplantation, giving a total of 15 treatments during this 5 weeks period.
1. Female CD45.1 into female CD45.2 2. Male CD45.1 into female CD45.2+anti-CD40L (300 ug/dose) (Clone MR-1; BioXCell, Cat#BE0017-1) 3. Male CD45.1 into female CD45.2+C1ORF ECD-Fc (SEQ ID NO:42) (300 ug/dose)2 4. Male CD45.1 into female CD45.2+Control Ig (mouse IgG2a) (300 ug/dose)
Beginning at 2 weeks following bone marrow transplantation, blood samples from the tail were collected from each mouse once a week for 4 weeks. Approximately 2-3 drops of blood were collected per mouse into 200 ul of PBS+EDTA (50 mM), samples were spun down, and RBCs lysed with ammonium chloride. The cells were washed 3× with PBS, stained with the viability dye Aqua Dead Cell Stain (Invitrogen; Cat#L34957), blocked with Fc Receptor block (anti-mouse CD16/32; eBioscience; Cat#14-0161-86), and stained with anti-mouse CD45.1 APC-Cy7 (eBiosciences; Cat#47-0453-80) and anti-mouse CD45.2 FITC (eBioscience; Cat#11-0454-82). The analysis for chimerism was determined by flow cytometric analysis (on total live cells) for the percentage of CD45.1+ versus CD45.2+ cells present in the blood of female recipient mice.
During weeks 6, 7, and 8 the blood samples were also stained to determine the percentage of CD4+ Teff cells and CD4+ Treg cells present within the blood using the cellular markers CD44, CD25, and FoxP3. Details of the Abs used in the flow panels for weeks 6, 7, and 8 are listed below.
(§1) These same populations of cells were analyzed at week 8 within the spleen. In addition, the proliferative and secreted cytokine responses of total splenocytes in ex vivo recall cultures were tested in the presence of medium alone, anti-CD3 (1 ug/ml), the HY antigen DBY peptide (NAGFNSNRANSSRSS; Genemed Synthesis; San Antonio, Tex.) (10 ug/ml), irradiated male splenocytes (1:1 ratio), or irradiated female splenocytes (1:1 ratio).

The subject of a further test is total splenocytes. The test can be described thus: Ex vivo recall responses of splenocytes, week 8 post bone marrow transplant. Type of test: cell-based, mouse. As to the method:
(§2) On week 8 post bone marrow cell transplantion, total splenocytes (5×10^5 cells/well) were cultured in the presence of medium alone (no stimulation), anti-CD3 (1 ug/ml), DBY peptide (10 ug/ml), irradiated male splenocytes (5×10^5 cells/well), or irradiated female splenocytes (5×10^5 cells/well). The individual splenocyte samples were cultured separately in triplicate wells. For T cell proliferative response, the cultures were pulsed with 1 uCi of tritiated thymidine at 24 hours and harvested at 72 hours post culture initiation. The statistical analysis carried out on the data is one-way ANOVA followed by Dunnett's post test as compared to the mice receiving male CD45.1+ bone marrow cells plus Control Ig treatment, p-values*<0.05, **<0.01,***<0.001, and #<0.0001.
as §2, with “transplant,” for “transplantion,”, “For” for “For T cell proliferative response,”, “cytokine cultures, the supernatants” for “cultures”, “collected” for “pulsed with 1 uCi of tritiated thymidine at 24 hours and harvested”, “initiation and the level of secreted cytokine was determined via LiquiChip.” for “initiation.”
as §1

A further test relates to SJL/J mice. In words: T cell and Treg counts in spleen and CNS, day 44 of EAE with IL-10 or TGFb blockade (FACS). Type of test: in vivo, mouse. An excerpt:
On day 44 post disease induction, the rest of the mice were sacrificed and spleens and CNS were taken for cell counts and cell population analysis as described below.
2. The spleens and CNS were collected.
4. Experimental stains (CD45, CD3, CD4, CD25, FoxP3, Nrp-1, and Helios)
9. Gating scheme for flow: Singlets (FSC-A vs. FSC-H)->Cells (SSC-A vs. FSC-A)->Live (VID stain negative cells)->CD45hi->CD3/CD4+->CD25/FoxP3+->Helios/Nrp-1

The mark [2] stands for this setting: week 6 post transplant, vs Control Ig.

B1: C1ORF32 ECD-Fc (SEQ ID NO:42): fusion protein of human C1ORF32 ECD fused to mouse immunoglobulin Fc (human-mouse fusion protein) (protein)
chain: LQVTVPDKKKVAMLFQPTVLRCHFSTSSHQPAVVQWKFKSYCQDRMGESLGMSSTRAQSLSKRNLEWDPYLDCLDSRRTVRVVASKQGSTVTLGDFYRGREITIVHDADLQIGKLMWGDSGLYYCIITTPDDLEGKNEDSVELLVLGRTGLLADLLPSFAVEIMGSENLYFQGSGEPRGPTIKPCPPCKCPAPNLLGGPSVFIFPPKIKDVLMISLSPIVTCVVVDVSEDDPDVQISWFVNNVEVHTAQTQTHREDYNSTLRVVSALPIQHQDWMSGKEFKCKVNNKDLPAPIERTISKPKGSVRAPQVYVLPPPEEEMTKKQVTLTCMVTDFMPEDIYVEWTNNGKTELNYKNTEPVLDSDGSYFMYSKLRVEKKNWVERNSYSCSVVHEGLHNHHTTKSFSRTPGK
modifications: Fusion protein human C1ORF32-ECD fused to mouse IgG2a Fc
B1: the graft rejection entry in test [1] (5 week dosing schedule beginning one week before transplant) is given as “effective in preventing graft rejection”. Moreover, the “male donor CD45.1+ cells present in the blood of recipient females” value in test [1] (week 4 post transplant, maintained until week 8, 300 ug/dose i.p. 3x/wk for 5 wks) is recorded as “highly significant number of male CD45.1+ cells were present”. For the same molecule, in test [1] (setting [2]), the “effector/memory CD4+ T cells (CD45.1+/CD4+/CD44hi) within the blood” value is recorded as “decrease” and the “resting CD4+ T cells (CD45.1+/CD4+/CD44lo) in blood” value is “significantly higher percentage”. Besides, the “activated donor CD4+ T cells (CD45.1+/CD4+/CD25+/FoxP3-) in blood” value in test [1] (week 7 post transplant, vs Control Ig) is given as “significantly lower percentage”. Besides, the “number of donor-derived (CD45.1+) CD4+/CD25+/FoxP3+ Treg cells and Treg subpopulations in spleen” value in test [1] (week 8) is listed as “striking increase”. For the same molecule, in test [1] (week 8, vs Control Ig), the “donor (CD45.1+) Tregs (FoxP3+CD25+) in blood” value is given as “significant increase”, the “donor (CD45.1+) activated CD4+ T cells (FoxP3-CD25+) in blood” value is listed as “decrease” and the “donor (CD45.1+) effector/memory CD4+ T cells (CD44hi) in blood” value is recorded as “significant increase”. Moreover, the “number of endogenous-derived (CD45.2+) Tregs and Treg subtypes in spleen” value in test [1] (week 8, vs Ig control group) is recorded as “reduced”. Further, the “percentage and number of CD45.1+/CD4+ T cells within the spleen” value in test [1] (week 8 post transplant) is recorded as “increased”. Further, in the test with total splenocytes (activation with male irradiated splenocytes or DBY peptide, vs Ig control treated mice), the “inflammatory cytokines (IFN-gamma, IL-17, GM-CSF, IL-12, IL-2 and TNF-alpha)” value was “significantly lower levels”. For the same molecule, the “IFNg, IL-17, IL-2, IL-12 and GM-CSF secretion” value in the test with total splenocytes (cultures stimulated with male irradiated splenocytes) is given as “inhibitory trend”. The “level of IL-10 and IL-4 secreted” value in the test on total splenocytes (splenocytes of treated mice, in response to male or female splenocytes) is “significantly increased”. In addition, in the test on SJL/J mice (administered concomitantly with anti-TGFβ), the “NRP+/Helios+ Treg subpopulation in the spleen” value is “increase”. In the test on SJL/J mice (alone or concomitantly with anti-TGFβ), the “Nrp+/HeliosLo Treg subpopulation in the spleen” value is “trend of increase”. In addition, in the test on SJL/J mice (day 44), the “T cell counts in the spleen (mainly CD4+)” value is recorded as “increase”; the “effects on CNS and spleen cell counts following concomitant neutralization of IL-10 or TGF-β” value is recorded as “not observed”; the “leukocytes and T cell counts in the CNS (CD45+, CD4+, and CD25+/FoxP3+)” value is reported as “pronounced decrease”. Besides, the “Nrp-/HeliosLo Treg subpopulation in the spleen” value in the test with SJL/J mice (treatment alone) is given as “upregulation”.

The record behind these values is patent publication US20170275344A1, “POLYPEPTIDES AND USES THEREOF AS A DRUG FOR TREATMENT OF AUTOIMMUNE DISORDERS” (Compugen Ltd., priority 2014, published 2017).
